The record followed here is patent publication US12383631B2, “Immune antigen specific IL-18 immunocytokines and uses thereof” (Bright Peak Therapeutics AG, priority 2022, dated 2025).

Experiment [1] has as its target T1, human IL-18 binding protein isoform a (IL-18BPa) (Homo sapiens, UniProt O95998).
T1 sequence (O95998 31-194): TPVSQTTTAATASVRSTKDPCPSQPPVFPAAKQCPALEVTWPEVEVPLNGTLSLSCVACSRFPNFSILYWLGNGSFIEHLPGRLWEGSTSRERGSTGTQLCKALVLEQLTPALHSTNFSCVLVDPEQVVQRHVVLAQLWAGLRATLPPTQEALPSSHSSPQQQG
The experiment is described as follows: Cellular IL-18 Binding protein resistance assay in NK-92 cells (Example 13). The format is cell-based. The conditions noted are these: NK92 cells, IL-18 analyte 1 nM final, IL-18BPa titrated, 1 ng/ml IL-12; read-out: IC50 IL-18BP-mediated inhibition of IFNγ secretion. The method, then:
The NK cell line NK-92 derived from a patient with lymphoma (ATCC, Cat #CRL-2407) was cultured in aMEM medium supplemented with 20% FCS-Glutamax, 25 μM B-mercaptoEthanol, and 100 IU/ml of recombinant Human Interleukin-2 (TL-2). On the day of experiment, cells were harvested and washed with aMEM medium without IL-2. After counting, cells were seeded at 100 000 cells/well in a 384 well titer plate and incubated at 37° C./5% CO2. Sixteen 2-fold serial dilutions of Fc fused human IL-18 binding protein isoform a (IL-18BPa; R&D systems, Cat #119-BP) were prepared in aMEM medium-1 ng/ml IL-12 containing 2 nM of each IL-18 variants and were added to the NK-92 cells. Final IL-18 analytes concentration was 1 nM and final IL-18BPa concentrations ranged from to 566 nM down to 17 pM.
After 16-20 h incubation at 37° C./5% CO2, 5 μl of supernatant were carefully transferred to a 384 microwells OPTIplate (Perkin Elmer; Cat #6007270) and Interferon-gamma (IFNγ) levels measured using the Human IFNγ AlphaLISA Assay Kit (Perkin Elmer, Cat #AL217C). Briefly, 10 μl of 2.5× AlphaLISA Anti-IFNγ acceptor beads and biotinylated Antibody Anti-IFNγ mix were added to the 5 μl of NK-92 supernatants and incubated for 1 h at room temperature under shaking. Under subdued light, 2.5 μl of 2× streptavidin (SA) donor beads were pipetted in each well and incubated for 30 min at room temperature under shaking. AlphaLisa signal was then measured on an Enspire plate reader (Perkin Elmer) using 680 and 615 nm as excitation and emission wavelengths respectively. Half maximal inhibitory concentration (IC50) was calculated based on a variable slope, four parameter analysis using GraphPad PRISM software.

The subject of experiment [2] is PD-1 positive (transduced) KG-1 cells. The experiment is described as follows: IFN gamma secretion assay in PD-1 transduced KG-1 cells (Example 11). The class given is cell-based, human. The settings on record: ratio of EC50 in PD-1 positive and parental KG-1 cells. How it is done:
The KG-1 cell line was used to generate a PD-1 expressing cell line and furthermore, to measure IFNγ release upon incubation with TL-18 variants and corresponding TL-18 immunocytokines.
PD-1 expressing cell line generation: Briefly, KG-1 cells were transduced using lentiviral particles carrying the human PD-1 gene (PDCD1 NM_005018; Origene, CAT #: RC210364L3V) at a MOI (Multiplicity of Infection) of 30. Spinfection was performed at 1260 g during 90 min at 37° C. in the presence of 5 μg/ml of Polybrene and 10 mM of HEPES in complete culture media (RPMI, 10% FBS, 1% L-Glutamine). Five days after transduction, puromycin at a final concentration of 1 μg/ml was added to select for PD-1 positive cells. For culture maintenance, puromycin concentration was decreased to 0.5 μg/ml. Stable and homogenous expression of PD-1 was verified by surface staining (BD Pharmingen, #557860).
IFNγ release was assessed in PD-1 positive (transduced) KG-1 cells, as well as in the parental PD-1 negative cells. 0.5×10^5 cells were seeded into a 96-well U-bottom plate in culture media (RPMI, 10% FBS, […]) and stimulated with IL-18 variants/ICs for 20-24 h. The test items were diluted to 100 nM in culture medium, followed by 7 10-fold serial dilutions. The lowest concentration assessed was […]. After incubation, IFNγ release was measured using the LEGENDplex custom human mix and match KIT (Biolegend LEGENDplex™ Human IFN-γ Capture Bead B5, 13×#740942, LEGENDplex™ P 1 Essential Immune Response Panel Detection Abs, #740931, LEGENDplex™ Buffer Set A #740368). To this end, cell culture supernatant was collected and diluted 1:1 with Assay Buffer. Fluorescence measurements were done with a Quanteon Flow Cytometer from Acea Biosciences. For analysis, MFI values (median fluorescence intensity) were exported and plotted against concentrations used. The EC50 values (half maximal effective concentration) were calculated based on a variable slope and four parameter analysis using GraphPad PRISM software version 9.

Regarding “SEQ ID NO: 1: native IL-18 wild-type sequence [reference compound]”, in experiment [1], the IC50 (as a rule, the midpoint of a concentration-inhibition curve) came out at 0.781 nM. Besides, the “PD-1^pos/PD-1^neg EC50 ratio” value in experiment [2] was 1.298.

As to “SEQ ID NO: 31: IL-18 polypeptide: C38A, C76A, C127A”, the IC50 in experiment [1] came to 0.282 nM. Further, the “PD-1^pos/PD-1^neg EC50 ratio” value in experiment [2] came out at 1.2.
